Experimental data taken from the Human Domainome abundance scans (Beltran et al. 2025).
± gives the uncertainty stated by the source.

B1: Advillin, residues 785 to 819; numbered along this chain, O75366 (parent)
chain: LSEQDFVSVFGITRGQFAALPGWKQLQMKKEKGLF

Variants of: B1
Assay: abundance fitness (aPCA) (normalised: wild type 0, dead -1); higher = more abundant; growth selection in yeast, the domain comes from the species named
Conditions: Homo sapiens

Abundance fitness, by site and new letter:
L34: M 0.029 ± 0.084; W 0.019 ± 0.063; H 0.042 ± 0.1; G 0.147 ± 0.06; C 0.355 ± 0.11; V -0.122 ± 0.069; K -0.003 ± 0.064; T 0.143 ± 0.064; Q 0.098 ± 0.078; S 0.177 ± 0.069; E 0.266 ± 0.08; A 0.128 ± 0.061; N 0.027 ± 0.088; R -0.112 ± 0.058; F 0.321 ± 0.12; P 0.033 ± 0.083; D 0.284 ± 0.14
E31: W -0.709 ± 0.14; V -0.367 ± 0.12; G -0.283 ± 0.055; R -0.464 ± 0.067; D 0.02 ± 0.1; T -0.645 ± 0.13; I -0.421 ± 0.21; L -0.42 ± 0.064; A -0.173 ± 0.059; M -0.453 ± 0.088; P -0.645 ± 0.096; C -0.443 ± 0.088; Y -0.746 ± 0.22; H -0.563 ± 0.5; K -0.271 ± 0.21
G33: K -0.325 ± 0.091; A -0.195 ± 0.059; P 0.191 ± 0.14; E -0.032 ± 0.078; T -0.308 ± 0.098; S -0.108 ± 0.074; R -0.235 ± 0.071; V -0.525 ± 0.11; W -0.541 ± 0.08; L -0.305 ± 0.083; N -0.401 ± 0.1; Q 0.186 ± 0.24
F35: V 0.141 ± 0.097; Q -0.071 ± 0.3; P 0.054 ± 0.084; I 0.312 ± 0.2; K -1 ± 0.38; N -0.478 ± 0.43; W -0.13 ± 0.17; L 0.197 ± 0.14; S 0.355 ± 0.18; C 0.179 ± 0.086; A -0.334 ± 0.29; E 0.129 ± 0.094; R 0.126 ± 0.11
K30: E 0.147 ± 0.082; L -0.192 ± 0.058; S -0.114 ± 0.063; T -0.215 ± 0.096; N 0.04 ± 0.33; I -0.266 ± 0.17; G -0.159 ± 0.055; H -0.121 ± 0.097; Q 0.026 ± 0.078; M 0.051 ± 0.089; F -0.345 ± 0.12; R 0.033 ± 0.058; A 0.078 ± 0.055; V -0.076 ± 0.063; P -0.453 ± 0.069; C -0.321 ± 0.077
K32: E -0.175 ± 0.081; Y -0.298 ± 0.098; L -0.047 ± 0.087; P -0.132 ± 0.14; G -0.156 ± 0.07; R 0.06 ± 0.052; W -0.365 ± 0.092; A 0.017 ± 0.066; M 0.072 ± 0.1; D -0.624 ± 0.14; I -0.536 ± 0.32; F -0.48 ± 0.47; T -0.179 ± 0.076; Q -0.122 ± 0.072; V -0.103 ± 0.073; N 0.122 ± 0.13; S 0.015 ± 0.08
K29: P -0.497 ± 0.11; N -0.09 ± 0.081; W -0.075 ± 0.07; Y -0.221 ± 0.21; Q 0.026 ± 0.07; V 0 ± 0.077; S -0.017 ± 0.068; T -0.043 ± 0.06; R -0.023 ± 0.048
